Several values for one entry are separate records, joined by “and”; a condition that tells them apart may be missing. Equal values may be shown once.
Columns and labels:
SAXS = biological target: the molecule itself; test: SAXS
negative staining EM = biological target: the molecule itself; test: negative staining EM

Protein | stoichiometry N (SAXS) | stoichiometry N (negative staining EM)
Twinkle (human mitochondrial replicative helicase), mature, aa 43-684, produced in E. coli (enzyme, UniProt Q96RR1 43-684, looked up) ETLQALDMPVLPVTATEIRQYLRGHGIPFQDGHSCLRALSPFAESSQLKGQTGVTTSFSLFIDKTTGHFLCMTSLAEGSWEDFQASVEGRGDGAREGFLLSKAPEFEDSEEVRRIWNRAIPLWELPDQEEVQLADTMFGLTKVTDDTLKRFSVRYLRPARSLVFPWFSPGGSGLRGLKLLEAKCQGDGVSYEETTIPRPSAYHNLFGLPLISRRDAEVVLTSRELDSLALNQSTGLPTLTLPRGTTCLPPALLPYLEQFRRIVFWLGDDLRSWEAAKLFARKLNPKRCFLVRPGDQQPRPLEALNGGFNLSRILRTALPAWHKSIVSFRQLREEVLGELSNVEQAAGLRWSRFPDLNRILKGHRKGELTVFTGPTGSGKTTFISEYALDLCSQGVNTLWGSFEISNVRLARVMLTQFAEGRLEDQLDKYDHWADRFEDLPLYFMTFHGQQSIRTVIDTMQHAVYVYDICHVIIDNLQFMMGHEQLSTDRIAAQDYIIGVFRKFATDNNCHVTLVIHPRKEDDDKELQTASIFGSAKASQEADNVLILQDRKLVTGPGKRYLQVSKNRFDGDVGVFPLEFNKNSLTFSIPPKNKARLKKIKDDTGPVAKKPSSGKKGATTQNSEICSGQAPTPDQPDTSKRSK | 7 | 6
Twinkle (human mitochondrial replicative helicase), aa 30-684, produced in SF9 insect cells (enzyme, UniProt Q96RR1 30-684, looked up) NLAPGPPRRRYRKETLQALDMPVLPVTATEIRQYLRGHGIPFQDGHSCLRALSPFAESSQLKGQTGVTTSFSLFIDKTTGHFLCMTSLAEGSWEDFQASVEGRGDGAREGFLLSKAPEFEDSEEVRRIWNRAIPLWELPDQEEVQLADTMFGLTKVTDDTLKRFSVRYLRPARSLVFPWFSPGGSGLRGLKLLEAKCQGDGVSYEETTIPRPSAYHNLFGLPLISRRDAEVVLTSRELDSLALNQSTGLPTLTLPRGTTCLPPALLPYLEQFRRIVFWLGDDLRSWEAAKLFARKLNPKRCFLVRPGDQQPRPLEALNGGFNLSRILRTALPAWHKSIVSFRQLREEVLGELSNVEQAAGLRWSRFPDLNRILKGHRKGELTVFTGPTGSGKTTFISEYALDLCSQGVNTLWGSFEISNVRLARVMLTQFAEGRLEDQLDKYDHWADRFEDLPLYFMTFHGQQSIRTVIDTMQHAVYVYDICHVIIDNLQFMMGHEQLSTDRIAAQDYIIGVFRKFATDNNCHVTLVIHPRKEDDDKELQTASIFGSAKASQEADNVLILQDRKLVTGPGKRYLQVSKNRFDGDVGVFPLEFNKNSLTFSIPPKNKARLKKIKDDTGPVAKKPSSGKKGATTQNSEICSGQAPTPDQPDTSKRSK |  | 6 and 7
